One data set deals with CREB (UniProt P16220 P16220:1-327). Put plainly: EMSA; 3.4 nM CREB, 0.5 nM probe, 10 ng poly dIdC, 75 mM KCl, 6.25 mM MgCl2, room temp; reference without Tax. Conditions: tags: heparin-agarose purified, prepared per Franklin et al. 1993; chain copies: 2; label: 32P end-label; cloned into pUC19 Bgl II site, 70 bp Kpn I-Hind III fragment used as probe. In general terms: Mobility shift assays separate free from complexed probe on a gel.

Data set [1] concerns the target CREB + Tax (HTLV-I Tax enhances CREB binding) (/ HTLV-I, UniProt P16220;P03409 P16220:1-327,P03409:1-353). Put plainly: EMSA. The following applies: tags: Tax carries C-terminal His6 (TaxH6); label: 32P end-label; cloned into pUC19 Bgl II site, 70 bp Kpn I-Hind III fragment used as probe.

CREB, sequence (P16220 whole entry, the tested form may be a part, one chain of several): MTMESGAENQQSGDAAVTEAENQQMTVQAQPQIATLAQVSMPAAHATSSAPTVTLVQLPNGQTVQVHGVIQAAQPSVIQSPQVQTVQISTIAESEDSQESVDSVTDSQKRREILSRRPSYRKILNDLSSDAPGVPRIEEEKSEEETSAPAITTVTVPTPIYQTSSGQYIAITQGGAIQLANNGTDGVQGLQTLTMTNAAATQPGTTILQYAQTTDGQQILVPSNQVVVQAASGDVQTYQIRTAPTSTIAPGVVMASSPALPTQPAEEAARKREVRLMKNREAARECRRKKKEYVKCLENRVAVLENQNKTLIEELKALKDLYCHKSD
CREB + Tax (HTLV-I Tax enhances CREB binding), sequence (P16220 whole entry, chain 1 of 2, the tested form may be a part): as the sequence (P16220 whole entry, the tested form may be a part, one chain of several) above
CREB + Tax (HTLV-I Tax enhances CREB binding), sequence (P03409 whole entry, chain 2 of 2, the tested form may be a part): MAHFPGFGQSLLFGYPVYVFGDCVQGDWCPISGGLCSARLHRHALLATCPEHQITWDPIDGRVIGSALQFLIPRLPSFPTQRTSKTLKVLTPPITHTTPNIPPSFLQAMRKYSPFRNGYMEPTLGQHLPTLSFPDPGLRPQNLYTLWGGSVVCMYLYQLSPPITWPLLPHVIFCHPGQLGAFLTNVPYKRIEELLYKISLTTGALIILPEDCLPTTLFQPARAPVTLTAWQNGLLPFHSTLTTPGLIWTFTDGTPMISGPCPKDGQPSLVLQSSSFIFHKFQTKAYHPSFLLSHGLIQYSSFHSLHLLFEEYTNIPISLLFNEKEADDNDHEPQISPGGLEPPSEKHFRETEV

B1: HTLV-I third 21 bp repeat (site 3 probe) (dsDNA)
DNA 1: GATCTGGCGTTGACGACAACCCCA
DNA 2: TGGGGTTGTCGTCAACGCCAGATC
In the case of B1, the binding signal with CREB is 1 fold; in data set [1], 3.9 fold.

(Values after patent publication US5717058, “Peptide inhibitors of tax-dependent transcription” (Somatogen, Inc.).)
